Assays:
[1] = biological target: prothrombin (Sigma), a human blood coagulation factor (UniProt P00734)
[2] = biological target: fibrinogen (MP Biomedicals), a human fibrin precursor (UniProt P02671)
[3] = tested on: fibrin of the fibrin plate (fibrinogen converted with 40 units of thrombin)

Substance: serine protease present in the venom of Bombus ignitus, activated form (Bi-VSP)
- human prothrombin activation by Bi-VSP, SDS-PAGE time course [1]: prothrombin started to convert into an activated form of thrombin 5 min after the reaction
- human fibrinogen hydrolysis by Bi-VSP, SDS-PAGE time course (Aα chain) [2]: Aα chain was completely hydrolyzed within 5 min after the reaction
- human fibrinogen hydrolysis by Bi-VSP, SDS-PAGE time course (Bβ and γ chains) [2]: Bβ and γ chains were completely hydrolyzed within 60 min
- fibrin plate assay, fibrinolytic activity [3]: white zones for the fibirnolysis were formed according to each different concentration
